Data as given in patent US7060266.

Experiments:
[1] = target: natural brain APP prepared from human hippocampus, P05067
[2] = target: natural brain APP pretreated with chondroitinase ABC, P05067
[3] = target: synthetic Aβ 1-40, P05067
[4] = target: synthetic Aβ 1-42, P05067

| Protein | proteolysis of natural brain APP (Western blot with anti Aβ 1/14 antibody) [1] | proteolysis of chondroitinase ABC-pretreated brain APP [2] | digestion of synthetic Aβ 1-40 (Western blot) [3] | digestion of synthetic Aβ 1-42 (Western blot) [4] | proteolytic activity of native-PAGE fractions for natural brain APP [1] |
| --- | --- | --- | --- | --- | --- |
| human brain carboxypeptidase B, 40 kDa protease (prepro-HBCPB) (protein) ASASYYEQYHSLNEIYSWIEFITERHPDMLTKIHIGSSFEKYPLYVLKVSGKEQTAKNAIWIDCGIHAREWISPAFCLWFIGHNRMWRKNRSFYANNHCIGTDLNSNFVSKHWCEEGASSSSCSETYCGLYPESEPEVKAVASFLRRNINQIKAYISMHSYSQHIVFPYSYTRSKSKDHEELSLVASEAVRAIDKTSKNTRYTHGHGSETLYLAPGGGDDWIYDLGIKYSFTSNPPVEKLLPLSLK | the 40 kDa protein degraded natural brain APP, generating a 5.5 kDa fragment as the major component of the 3 to 11 kDa Aβ-containing peptides | it was shown that the reaction is almost completely inhibited | low-molecular weight peptides formed in a dose-dependent manner | low-molecular weight peptides formed in a dose-dependent manner |  |
| human brain carboxypeptidase B, 30 kDa mature form (protein) ASASYYEQYHSLNEIYSWIEFITERHPDMLTKIHIGSSFEKYPLYVLKVSGKEQTAKNAIWIDCGIHAREWISPAFCLWFIGHNRMWRKNRSFYANNHCIGTDLNRNFASKHWCEEGASSSSCSETYCGLYPESEPEVKAVASFLRRNINQIKAYISMHSYSQHIVFPYSYTRSKSKDHEELSLVASEAVRAIEKTSKNTRYTHGHGSETLYLAPGGGDDWIYDLGIKYSFTSNPPVEKLLPLSLK |  |  |  |  | fraction 19 with a molecular mass of about 40 kDa and fraction 11 with a molecular mass of about 30 kDa had similar proteolytic activities |
